The values that follow come from patent US20140256621A1 (published 2014).

Test [1] deals with T1, chimeric Hu-Leptin/Mu-EPO receptor (human; mouse, UniProt P48357 22-839; P14753 250-507).
T1 sequence (looked up): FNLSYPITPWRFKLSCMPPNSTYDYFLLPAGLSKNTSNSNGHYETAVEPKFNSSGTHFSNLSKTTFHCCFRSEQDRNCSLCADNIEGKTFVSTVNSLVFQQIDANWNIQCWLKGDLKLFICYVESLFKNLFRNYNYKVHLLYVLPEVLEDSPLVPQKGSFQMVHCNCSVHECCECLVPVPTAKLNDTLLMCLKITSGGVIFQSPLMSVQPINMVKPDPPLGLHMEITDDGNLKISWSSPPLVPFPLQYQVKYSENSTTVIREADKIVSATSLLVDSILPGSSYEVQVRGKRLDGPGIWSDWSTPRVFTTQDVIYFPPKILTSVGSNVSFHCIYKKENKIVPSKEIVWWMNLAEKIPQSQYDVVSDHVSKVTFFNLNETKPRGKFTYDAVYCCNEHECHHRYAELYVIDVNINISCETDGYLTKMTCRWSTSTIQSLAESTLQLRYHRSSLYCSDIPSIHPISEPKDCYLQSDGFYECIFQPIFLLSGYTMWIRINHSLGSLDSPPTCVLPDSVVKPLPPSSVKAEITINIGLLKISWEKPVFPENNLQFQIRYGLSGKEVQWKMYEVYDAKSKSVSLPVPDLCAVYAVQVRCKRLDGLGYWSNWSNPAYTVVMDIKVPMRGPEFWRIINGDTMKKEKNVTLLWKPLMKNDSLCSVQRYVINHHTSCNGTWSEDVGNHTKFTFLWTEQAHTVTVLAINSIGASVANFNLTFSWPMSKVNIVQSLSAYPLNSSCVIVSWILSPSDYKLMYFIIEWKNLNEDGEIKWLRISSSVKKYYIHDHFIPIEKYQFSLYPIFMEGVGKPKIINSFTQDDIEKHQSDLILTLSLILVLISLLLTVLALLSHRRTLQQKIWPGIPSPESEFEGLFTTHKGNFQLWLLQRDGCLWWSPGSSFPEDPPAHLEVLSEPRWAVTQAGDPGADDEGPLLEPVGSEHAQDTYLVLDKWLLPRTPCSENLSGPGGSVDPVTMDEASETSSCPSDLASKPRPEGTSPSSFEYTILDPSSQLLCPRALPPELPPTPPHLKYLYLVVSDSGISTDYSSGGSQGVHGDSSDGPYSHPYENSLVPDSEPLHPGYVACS
As to the kind of experiment: cell-based or functional assay.

In test [2] the target is T2, Rat SA (rat, UniProt P02770 25-608).
T2 construct: also called rat serum albumin
As to the kind of experiment: SPR (BioRad ProteOn XPR36), albumin amine-coupled on GLC chip, polypeptide injected from 5 nM in 3-fold dilutions, 25 C; relative KD. The method, then:
(§1) All studies were conducted on a BioRad ProteOn XPR36 system using a GLC sensor chip at 25 degrees C. For amine coupling the GLC chip was activated for 5 minutes using a 1:1 mixture of sulfo-NHS/EDC diluted 30-fold from the initial stock in water as shown below. Each albumin sample was diluted to 25 ug/ml in 10 mM Na Acetate pH 5.0 and injected for 5 minutes over separate sensor surfaces. Each surface was then blocked with 1 M ethanolamine pH 8.5. Each albumin was coupled at a density of 2000-5000 in resonance units.
(§2) The binding of an engineered polypeptide was tested using 5 nM as the highest concentration in a three-fold dilution series. The running buffer contained 10 mM HEPES pH 7.4, 150 mM NaCl, 3 mM EDTA and 0.005% tween-20. All samples were tested using a 3-fold dilution series. Each concentration series was tested in duplicate. The dissociation phase for the highest concentration […] was monitored for 3 hours.

Test [3] deals with T3, Monkey SA (monkey).
T3 construct: also called monkey serum albumin
The description is as above. The method, then: as §1, §2

The target in test [4] is T4, Dog SA (dog, UniProt P49822 25-608).
T4 construct: also called dog serum albumin
The test is described as above. As for the experimental part:
as §1, §2

Test [5] has as its target T5, Mouse SA (mouse, UniProt P07724 25-608).
T5 construct: also called mouse serum albumin
The description is as above. The method, then:
as §1, §2

In test [6] the target is T6, human serum albumin (human, UniProt P02768 25-609).
T6 construct: also called HSA; Albucult (Novozyme)
Described as above. As for the experimental part:
as §1, §2

Broadly, the Kd is a measure of binding affinity in units of concentration.

T6 sequence (P02768 25-609 limits assumed): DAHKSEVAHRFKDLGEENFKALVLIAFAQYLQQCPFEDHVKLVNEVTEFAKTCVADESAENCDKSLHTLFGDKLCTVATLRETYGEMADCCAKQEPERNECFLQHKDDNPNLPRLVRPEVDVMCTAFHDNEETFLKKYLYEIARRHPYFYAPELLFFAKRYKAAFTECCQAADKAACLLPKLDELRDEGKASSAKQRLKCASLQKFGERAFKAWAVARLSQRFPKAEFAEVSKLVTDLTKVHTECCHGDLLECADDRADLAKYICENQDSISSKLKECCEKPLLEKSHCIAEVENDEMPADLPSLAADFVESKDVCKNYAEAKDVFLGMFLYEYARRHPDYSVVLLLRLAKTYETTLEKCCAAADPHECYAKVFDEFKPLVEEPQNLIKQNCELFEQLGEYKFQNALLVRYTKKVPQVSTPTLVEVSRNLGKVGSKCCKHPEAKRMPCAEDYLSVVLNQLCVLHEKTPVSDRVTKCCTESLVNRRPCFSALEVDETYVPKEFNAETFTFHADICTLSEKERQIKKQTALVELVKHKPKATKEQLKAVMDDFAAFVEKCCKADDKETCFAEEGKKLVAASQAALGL
T3 sequence (A2V9Z4 25-608): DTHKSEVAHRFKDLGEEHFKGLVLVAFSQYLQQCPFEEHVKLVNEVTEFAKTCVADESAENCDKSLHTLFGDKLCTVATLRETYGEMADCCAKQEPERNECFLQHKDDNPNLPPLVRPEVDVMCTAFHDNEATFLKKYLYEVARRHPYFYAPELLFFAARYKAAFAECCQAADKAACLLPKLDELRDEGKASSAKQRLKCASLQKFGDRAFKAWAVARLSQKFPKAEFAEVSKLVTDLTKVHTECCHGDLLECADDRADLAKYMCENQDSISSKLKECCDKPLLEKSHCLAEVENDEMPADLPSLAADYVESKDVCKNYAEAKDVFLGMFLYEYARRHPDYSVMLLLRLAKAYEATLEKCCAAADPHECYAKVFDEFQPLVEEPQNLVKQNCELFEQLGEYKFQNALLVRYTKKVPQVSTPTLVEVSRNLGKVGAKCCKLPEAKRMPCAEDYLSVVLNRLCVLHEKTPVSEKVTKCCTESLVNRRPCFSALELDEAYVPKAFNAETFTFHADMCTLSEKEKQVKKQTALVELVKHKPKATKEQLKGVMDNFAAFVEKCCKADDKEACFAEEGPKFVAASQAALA
T2 sequence (P02770 25-608 limits assumed): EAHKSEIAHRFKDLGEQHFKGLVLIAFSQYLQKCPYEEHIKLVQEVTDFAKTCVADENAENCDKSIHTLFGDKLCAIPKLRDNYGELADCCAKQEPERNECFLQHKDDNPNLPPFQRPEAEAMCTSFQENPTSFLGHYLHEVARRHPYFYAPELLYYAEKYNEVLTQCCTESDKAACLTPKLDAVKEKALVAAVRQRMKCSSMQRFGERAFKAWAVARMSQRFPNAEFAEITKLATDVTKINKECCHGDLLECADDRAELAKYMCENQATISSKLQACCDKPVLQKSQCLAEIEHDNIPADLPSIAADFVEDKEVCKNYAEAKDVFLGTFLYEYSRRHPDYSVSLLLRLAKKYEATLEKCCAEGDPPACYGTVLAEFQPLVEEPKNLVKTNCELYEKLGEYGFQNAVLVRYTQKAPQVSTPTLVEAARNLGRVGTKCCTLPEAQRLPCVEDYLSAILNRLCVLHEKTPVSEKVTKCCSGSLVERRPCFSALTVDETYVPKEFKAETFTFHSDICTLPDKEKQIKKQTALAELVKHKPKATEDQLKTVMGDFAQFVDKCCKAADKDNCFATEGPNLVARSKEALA
T4 sequence (P49822 25-608 limits assumed): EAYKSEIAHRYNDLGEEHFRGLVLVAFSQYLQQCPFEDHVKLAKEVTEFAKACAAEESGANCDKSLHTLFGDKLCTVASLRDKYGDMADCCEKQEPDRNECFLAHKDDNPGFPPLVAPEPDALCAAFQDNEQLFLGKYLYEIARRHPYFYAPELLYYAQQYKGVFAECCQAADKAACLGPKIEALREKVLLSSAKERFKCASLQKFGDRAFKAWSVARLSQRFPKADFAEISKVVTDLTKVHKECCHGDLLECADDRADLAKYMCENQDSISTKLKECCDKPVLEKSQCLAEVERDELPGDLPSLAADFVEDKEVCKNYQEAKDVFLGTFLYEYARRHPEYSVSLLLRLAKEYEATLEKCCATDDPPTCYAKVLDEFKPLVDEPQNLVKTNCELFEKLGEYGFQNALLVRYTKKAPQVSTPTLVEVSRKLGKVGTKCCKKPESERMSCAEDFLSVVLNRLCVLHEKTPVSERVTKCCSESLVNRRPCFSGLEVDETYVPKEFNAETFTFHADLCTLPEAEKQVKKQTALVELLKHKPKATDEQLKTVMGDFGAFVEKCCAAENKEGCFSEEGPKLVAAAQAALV

B1: Cmpd 68 (other)
chain: MLAEAKEAANAELDSYGVSDFYKRLIDKAKTVEGVEALKDAILAALPTGGGGSGGGSGGGSGGGSASVPIQKVQDDTKTLIKTIVTRINDISHTQSVSSKQKVTGLEFIPGLHPILTLSKMDQTLAVYQQILTSMPSRNVIQISNDLENLRDLLHVLAFSKSCHLPQASGLETLESLGGVLEASGYSTEVVALSRLQGSLQDMLQQLDLSPGC
In the case of B1, the “EC50 nM (Obeca STAT5 assay)” value in test [1] came to 0.71 nM.

B2: Cmpd 1 (other)
chain: MGSLAEAKEAANAELDSYGVSDFYKRLIDKAKTVEGVEALKDAILAALPTGGGGASVPIQKVQDDTKTLIKTIVTRINDISHTQSVSSKQKVTGLEFIPGLHPILTLSKMDQTLAVYQQILTSMPSRNVIQISNDLENLRDLLHVLAFSKSCHLPQASGLETLESLGGVLEASGYSTEVVALSRLQGSLQDMLQQLDLSPGC
Turning to B2, the “EC50 nM (Obeca STAT5 assay)” value in test [1] was 0.908 nM.

B3: Cmpd 70 (other)
chain: MGSLAEAKVLANRELDKYGVSDFYKRLIDKAKTVEGVEALKDAILAALPTGGEGGEGGEGGEGGEGGEASVPIQKVQDDTKTLIKTIVTRINDISHTQSVSSKQKVTGLEFIPGLHPILTLSKMDQTLAVYQQILTSMPSRNVIQISNDLENLRDLLHVLAFSKSCHLPQASGLETLESLGGVLEASGYSTEVVALSRLQGSLQDMLQQLDLSPGC
On to B3, for which the “EC50 nM (Obeca STAT5 assay)” value in test [1] came out at 0.941 nM.

B4: PEP07986-negative linker-A500 (Compound 12) (other)
chain: MGSLAEAKEAANAELDSYGVSDFYKRLIDKAKTVEGVEALKDAILAALPTGGEGGEGGEGGEGGEGGEASVPIQKVQDDTKTLIKTIVTRINDISHTQSVSSKQKVTGLEFIPGLHPILTLSKMDQTLAVYQQILTSMPSRNVIQISNDLENLRDLLHVLAFSKSCHLPQASGLETLESLGGVLEASGYSTEVVALSRLQGSLQDMLQQLDLSPGC
notes: also called Cmpd 12; PEP07986-Negative-A500
Turning to B4, in test [1], the “EC50 nM (Obeca STAT5 assay)” value turned out to be 0.947 nM. The Kd in test [2] is 10 pM; in test [3] it was 400 pM; in test [4], 1810 pM; in test [5], 1940 pM; in test [6], 270 pM.

B5: Cmpd 69 (other)
chain: MGSLAEAKVLANRELDKYGVSDFYKRLIEKAKTVEGVEALKEAILAALPTGGEGGEGGEGGEGGEGGEASVPIQKVQDDTKTLIKTIVTRINDISHTQSVSSKQKVTGLEFIPGLHPILTLSKMDQTLAVYQQILTSMPSRNVIQISNDLENLRDLLHVLAFSKSCHLPQASGLETLESLGGVLEASGYSTEVVALSRLQGSLQDMLQQLDLSPGC
As for B5, in test [1], the “EC50 nM (Obeca STAT5 assay)” value was 0.832 nM.

B6: PEP07986-neutral linker-A500 (Compound 2) (other)
chain: MGSLAEAKEAANAELDSYGVSDFYKRLIDKAKTVEGVEALKDAILAALPTGGGGSGGGSGGGSGGGSASVPIQKVQDDTKTLIKTIVTRINDISHTQSVSSKQKVTGLEFIPGLHPILTLSKMDQTLAVYQQILTSMPSRNVIQISNDLENLRDLLHVLAFSKSCHLPQASGLETLESLGGVLEASGYSTEVVALSRLQGSLQDMLQQLDLSPGC
notes: also called Cmpd 2; PEP07986-Neutral-A500
On to B6, for which the “EC50 nM (Obeca STAT5 assay)” value in test [1] was 0.725 nM. Further, the Kd in test [2] was determined as 23 pM; in test [3], 405 pM; in test [4], 1310 pM; in test [5], 1660 pM; in test [6], 152 pM.

B7: Cmpd 63 (printed with SEQ ID NO: 659 in Table X4) (other)
chain: MGSLAEAKEAANAELDSYGVSDFYKRLIDKAKTVEGVEALKDAILAALPTGGGGSGGGSGGGSGGGSASVPIQKVQDDTKTLIKTIVTRINDISHTQSVSSKQKVTGLEFIPGLHPILTLSKMDQTLAVYQQILTSMPSRNVIQISNDLENLRDLLHVLAFSKSCSLPQASGLETLESLGEVLEASGYSTEVVALSRLQGSLQDILQQLDLSPEC
Take B7: in test [1], the “EC50 nM (Obeca STAT5 assay)” value was 0.785 nM.

B8: Cmpd 55 (other)
chain: MGSLAEAKVLANRELDKYGVSDFYKRLIDKAKTVEGVEALKDAILAALPTGGGGSGGGSGGGSGGGSASVPIQKVQDDTKTLIKTIVTRINDISHTQSVSSKQKVTGLEFIPGLHPILTLSKMDQTLAVYQQILTSMPSRNVIQISNDLENLRDLLHVLAFSKSCHLPQASGLETLESLGGVLEASGYSTEVVALSRLQGSLQDMLQQLDLSPGC
Turning to B8, in test [1], the “EC50 nM (Obeca STAT5 assay)” value came out at 0.639 nM.

B9: Cmpd 41 (other)
chain: MGSLAQAKEAANRELDSYGVSDFYKRLIDKAKTVEGVEALKDAILAALPTGGGGSGGGSGGGSGGGSASVPIQKVQDDTKTLIKTIVTRINDISHTQSVSSKQKVTGLEFIPGLHPILTLSKMDQTLAVYQQILTSMPSRNVIQISNDLENLRDLLHVLAFSKSCHLPQASGLETLESLGGVLEASGYSTEVVALSRLQGSLQDMLQQLDLSPGC
Take B9: the “EC50 nM (Obeca STAT5 assay)” value in test [1] was found to be 0.506 nM.

B10: Cmpd 48 (other)
chain: MGSLAEAKEAANRELDAYGVSDFYKRLIDKAKTVEGVEALKDAILAALPTGGGGSGGGSGGGSGGGSASVPIQKVQDDTKTLIKTIVTRINDISHTQSVSSKQKVTGLEFIPGLHPILTLSKMDQTLAVYQQILTSMPSRNVIQISNDLENLRDLLHVLAFSKSCHLPQASGLETLESLGGVLEASGYSTEVVALSRLQGSLQDMLQQLDLSPGC
For the molecule B10, the “EC50 nM (Obeca STAT5 assay)” value in test [1] was 0.553 nM.

B11: Cmpd 71 (other)
chain: MLAEAKEAANAELDSYGVSDFYKRLIDKAKTVEGVEALKDAILAALPTGGGGSGGGSGGGSGGGSASPIQRVQDDTKTLIKTIITRINDISHTQSVSSKQKVTGLDFIPGLHPILTLSGMDQILATYQQILTSLQSRNVIQISNDLENLRDLLHVLAFSKSCPVPRARGSDTIKGLGNVLRASVHSTEVVALSRLKAALQDMLRQLDRNPGC
In the case of B11, the “EC50 nM (Obeca STAT5 assay)” value in test [1] was 1.26 nM.

B12: Cmpd 64 (other)
chain: MLAEAKEAANAELDSYGVSDFYKRLIDKAKTVEGVEALKDAILAALPTGGGGSGGGSGGGSGGGSASPIQRVQDDTKTLIKTIITRINDISPPQGVSSRPRVAGLDFIPRVQSVRTLSGMDQILATYQQILTSLQSRNVIQISNDLENLRDLLHVLAFSKSCPVPRARGSDTIKGLGNVLRASVHSTEVVALSRLKAALQDMLRQLDRNPGC
On to B12, for which the “EC50 nM (Obeca STAT5 assay)” value in test [1] came out at 0.634 nM.

B13: Cmpd 9 (other)
chain: MGSLAEAKEAANAELDSYGVSDFYKRLIDKAKTVEGVEALKDAILAALPTGGGGSGGGSGGGSGGGSASPIQRVQDDTKTLIKTIITRINDISPPQGVSSRPRVAGLDFIPRVQSVRTLSGMDQILATYQQILTSLQSRNVIQISNDLENLRDLLHVLAFSKSCPVPRARGSDTIKGLGNVLRASVHSTEVVALSRLKAALQDMLRQLDRNPGC
On to B13, for which the “EC50 nM (Obeca STAT5 assay)” value in test [1] was 0.433 nM.
